{"source": "patent US20250230247A1", "binders": {"B1": {"name": "commercial anti-Dectin-1 antibody 15E2 (antibody, from a related filing, V domains shown)", "VH": "QWQLQQSGAELARPGASWKMSCKASGYTFTTYTMHWWKQRPGQGLEWIGYINPSSGYTNYNQKFKDKATLTADKSSSTASMQLSSLTSEDSAWYYCARERAVLVPYAMDYWGQGTSVTVSS", "VL": "QIVLTQSPAVMSASPGEKWTITCTASSSLSYMHWFQQKPGTSPKLWLYSTSILASGVPTRFSGSGSGTSYSLTISRMEAEDAATYYCQQRSSSPFTFGSGTKLEIK"}}, "key": {"[1]": {"biological_target": "human Dectin-1 expressed on cells (isoform not given) (human) (UniProt Q9BXN2)", "experiment": "flow cytometry on human monocytes (summary table)"}, "[2]": {"biological_target": "T1, human Dectin-1 isoform A (human) (UniProt Q9BXN2)", "T1 sequence": "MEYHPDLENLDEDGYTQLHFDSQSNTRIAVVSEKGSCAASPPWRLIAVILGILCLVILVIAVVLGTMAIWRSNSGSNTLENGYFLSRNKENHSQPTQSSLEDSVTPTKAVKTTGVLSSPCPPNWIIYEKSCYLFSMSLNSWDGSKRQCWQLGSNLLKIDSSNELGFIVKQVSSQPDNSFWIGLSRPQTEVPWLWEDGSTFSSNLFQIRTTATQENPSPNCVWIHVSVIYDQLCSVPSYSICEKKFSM", "experiment": "flow cytometry on HEK293F hDectin-1a FL cells"}, "[3]": {"biological_target": "T1, human Dectin-1 isoform A (human)", "experiment": "flow cytometry on HEK-Blue hDectin-1a cells"}, "[4]": {"biological_target": "T1, human Dectin-1 isoform A (human)", "experiment": "flow cytometry on HEK293F hDectin-1a FL cells (summary table)"}, "[5]": {"biological_target": "T1, human Dectin-1 isoform A (human)", "experiment": "flow cytometry on HEK-Blue hDectin-1a cells (summary table)"}, "[6]": {"biological_target": "human Dectin-1 expressed on cells (isoform not given) (human) (UniProt Q9BXN2)", "experiment": "flow cytometry on human monocytes"}, "[7]": {"biological_target": "human Dectin-1 expressed on cells (isoform not given) (human) (UniProt Q9BXN2)"}}}
{"binder": "B1", "values": [{"measurement": "EC50", "setting": "[1]", "result": 0.6, "unit": "nM"}, {"measurement": "EC50", "setting": "[2]", "result": 1.4, "unit": "nM"}, {"measurement": "EC50", "setting": "[3]", "result": 1.2, "unit": "nM"}, {"measurement": "EC50", "setting": "[4]", "result": 1.4, "unit": "nM"}, {"measurement": "EC50", "setting": "[5]", "result": 1.2, "unit": "nM"}, {"measurement": "EC50", "setting": "[6]", "result": 0.6, "unit": "nM"}, {"measurement": "IFNg secretion in PBMC, immobilized antibody (fold change to isotype)", "setting": "[7]", "result": 1.6}, {"measurement": "IL6 secretion in PBMC, immobilized antibody (fold change to isotype)", "setting": "[7]", "result": 2.6}, {"measurement": "TNFa secretion in PBMC, immobilized antibody (fold change to isotype)", "setting": "[7]", "result": 3}]}
